Key:
[1] = biological target: T1, huFLT3-T227 stably expressed on Ramos cells (human, UniProt P36888 27-993); experiment: FACS on cells
T1 construct: whole, on cells; also called FLT3 WT

[2] = biological target: T2, huFLT3-M227 stably expressed on Ramos cells (human, UniProt P36888 27-993); experiment: FACS on cells
T2 construct: whole, on cells; also called FLT3 Mutant

Binder	FACS geometric mean fold change over Jurkat parental [1] [fold]	FACS geometric mean fold change over Jurkat parental [2] [fold]
Polypeptide No. 254 (scFv, V domains shown, scFv) VH: QVQLVQSGAEVKKPGASVKVSCKASGYTFTSHYMHWVRQAPGQGLEWMGWISPYNGNTNYAQKLQGRVTMTRDTSTSTVYMELSSLRSEDTAVYYCARGESNSGWINFDYWGQGTLVTVSS VL: EIVMTQSPATLSVSPGERATLSCRASQSVSSSSLAWYQQKPGQAPRLLIYDTSTRATGIPARFSGSGSGTEFTLTISSLQSEDFAVYYCQQYGTSPITFGQGTRLEIKR	10 to 30	2 to 10
Polypeptide No. 247 (scFv, V domains shown, scFv) VH: QVQLVQSGAEVKKPGASVKVSCKASGGTLMSYAISWVRQAPGQGLEWMGIINPRGGTTRYAQKFQGRVTMTRDTSTSTVYMELSSLRSEDTAVYYCARSEDSGYDYLDYWGQGTLVTVSS VL: EIVMTQSPATLSVSPGERATLSCRGSQSISGNYLAWYQQKPGQAPRLLIYDTSARAAGIPARFSGSGSGTEFTLTISSLQSEDFAVYYCQQYNSYPLTFGGGTKVEIKR	2 to 10	2 to 10
Polypeptide No. 231 (scFv, V domains shown, scFv) VH: QVQLVQSGAEVKKPGASVKVSCKASGYTFTSYYIHWVRQAPGQGLEWMGLINPSGGSTTYAQSFQGRVTMTRDTSTSTVYMELSSLRSEDTAVYYCARGLGWGVVVPAAELDYWGQGTLVTVSS VL: DIQMTQSPSSLSASVGDRVTITCRASQSISTYLNWYQQKPGKAPKLLIYAASNLQSGVPSRFSGSGSGTDFTLTISSLQPEDFATYYCQQSYSSPLTFGPGTKVDIKR	> 30	> 30
Polypeptide No. 246 (scFv, V domains shown, scFv) VH: QVQLVQSGAEVKKPGSSVKVSCKASGGTFTSYFMHWVRQAPGQGLEWMGGIIPMFGAPVYAQDFQGRVTITADESTSTAYMELSSLRSEDTAVYYCAAGLDFWSGPDNYYMDVWGKGTTVTVSS VL: DIQMTQSPSSLSASVGDRVTITCQATQDISNYLNWYQQKPGKAPKLLIYGASNLPSGVPSRFSGSGSGTDFTLTISSLQPEDFATYYCQQSYSDLLTFGPGTKVDIKR	10 to 30	2 to 10
Polypeptide No. 241 (scFv, V domains shown, scFv) VH: QVQLVQSGAEVKKPGASVKVSCKASGYTFTRHYVHWVRQAPGQGLEWMGIINPSGGSTSYAQKFQGRVTMTRDTSTSTVYMELSSLRSEDTAVYYCARSYHHYYYGMDVWGQGTTVTVSS VL: DIQMTQSPSSLSASVGDRVTITCRASQSISNYLAWYQQKPGKAPKLLIYAASSLQGGVPSRFSGSGSGTDFTLTISSLQPEDFATYYCQQSYSTPWTFGQGTKVEIKR	10 to 30	10 to 30
Polypeptide No. 244 (scFv, V domains shown, scFv) VH: QVQLVQSGAEVKKPGASVKVSCKASGYTFTSYYMHWVRQAPGQGLEWMGRINPSGGSTSYAQSFQGRVTMTRDTSTSTVYMELSSLRSEDTAVYYCARVPGLYGGAIDYWGQGTLVTVSS VL: DIQMTQSPSSLSASVGDRVTITCRASQDIRNDLGWYQQKPGKAPKLLIYAASSLQSGVPSRFSGSGSGTDFTLTISSLQPEDFATYYCQQSYSSPFTFGQGTKVEIKR	> 30	> 30
Polypeptide No. 257 (scFv, V domains shown, scFv) VH: QVQLVQSGAEVKKPGASVKVSCKASGYTFTNYFMHWVRQAPGQGLEWMGIINPSGGSTSYAQKFQGRVTMTRDTSTSTVYMELSSLRSEDTAVYYCARAHTVYYYGMDVWGQGTMVTVSS VL: DIQMTQSPSSLSASVGDRVTITCRASQSISSWLAWYQQKPGKAPKLLIYAASTLQSGVPSRFSGSGSGTDFTLTISSLQPEDFATYYCQQSYSTPWTFGQGTKLEIKR	10 to 30	10 to 30
Polypeptide No. 260 (scFv, V domains shown, scFv) VH: QVQLVQSGAEVKKPGASVKVSCKASGYTFTNYYVHWVRQAPGQGLEWMGMINPSGGSTNYAQKFQGRVTMTRDTSTSTVYMELSSLRSEDTAVYYCARVSGWKRGWFDPWGQGTLVTVSS VL: DIQMTQSPSSLSASVGDRVTITCRSSQSISTYLNWYQQKPGKAPKLLIYGASNLQSGVPSRFSGSGSGTDFTLTISSLQPEDFATYYCQQVISYPITFGGGTKVEIKR	> 30	> 30
Polypeptide No. 249 (scFv, V domains shown, scFv) VH: QVQLVQSGAEVKKPGASVKVSCKASGYTFTSDGISWVRQAPGQGLEWMGWMNPNSGNAGYAQKFQGRVTMTRDTSTSTVYMELSSLRSEDTAVYYCATAVAGTDAFDIWGQGTMVTVSS VL: EIVMTQSPATLSVSPGERATLSCRASQSIGNNLKAWYQQKPGQAPRLLIYDTSAHTTGIPARFSGSGSGTEFTLTISSLQSEDFAVYYCQHYGNSLTFGQGTKVEIK	2 to 10	2 to 10
Polypeptide No. 248 (scFv, V domains shown, scFv) VH: QVQLVQSGAEVKKPGASVKVSCKASGYTFTGYYMHWVRQAPGQGLEWMGVINPNGGSISYAQKFQGRVTMTRDTSTSTVYMELSSLRSEDTAVYYCAREGWFGEDGMDVWGQGTTVTVSS VL: DIQMTQSPSSLSASVGDRVTITCRASQDLDRYLAWYQQKPGKAPKLLIYAASSLQTGVPSRFSGSGSGTDFTLTISSLQPEDFATYYCQQYYSTPYTFGQGTKLEIKR	2 to 10	2 to 10
Polypeptide No. 253 (scFv, V domains shown, scFv) VH: QVQLVQSGAEVKKPGSSVKVSCKASGYTFTTYFMHWVRQAPGQGLEWMGGIVPVFGTTKYAQKFQGRVTITADESTSTAYMELSSLRSEDTAVYYCASSAVGWFDPWGQGTLVTVSS VL: DIQMTQSPSSLSASVGDRVTITCRASQDISRWLAWYQQKPGKAPKLLIYAASSLQSGVPSRFSGSGSGTDFTLTISSLQPEDFATYYCQQYDNFPLTFGGGTKLEIKR	2 to 10	2 to 10
Polypeptide No. 256 (scFv, V domains shown, scFv) VH: QVQLVQSGAEVKKPGASVKVSCKASGYTFATYYLHWVRQAPGQGLEWMGMINPSGGSTIYAQKFQGRVTMTRDTSTSTVYMELSSLRSEDTAVYYCARSSGYDFFDYWGQGTLVTVSS VL: DIQMTQSPSSLSASVGDRVTITCRASHDINNYLNWYQQKPGKAPKLLIYDASNLETGVPSRFSGSGSGTDFTLTISSLQPEDFATYYCQQADSFPLTFGGGTKVEIKR	> 30	> 30
Polypeptide No. 233 (scFv, V domains shown, scFv) VH: QVQLVQSGAEVKKPGASVKVSCKASGYTFTSYYLHWVRQAPGQGLEWIGVINPSGGSTTYAQRFQGRVTMTRDTSTSTVYMELSSLRSEDTAVYYCARGIGYGGYFDYWGQGTLVTVSS VL: DIVMTQSPLSLPVTPGEPASISCRSSQSLLHSNGYNYLDWYLQKPGQSPQLLIYAASSLQSGVPDRFSGSGSGTDFTLKISRVEAEDVGVYYCMQGLRTPHTFGGGTKVEIKR	> 30	> 30
Polypeptide No. 242 (scFv, V domains shown, scFv) VH: QVQLVQSGAEVKKPGSSVKVSCKASGGTFSSATISWVRQAPGQGLEWMGGIIPMFGTANYAQKFQGRVTITADESTSTAYMELSSLRSEDTAVYYCARDAYGDSTWGQGTLVTVSS VL: EIVMTQSPATLSVSPGERATLSCRASESVSSALAWYQQKPGQAPRLLIYGASTRATGIPARFSGSGSGTEFTLTISSLQSEDFAVYYCQQYGNSVTFGGGTKVEIKR	> 30	> 30
Polypeptide No. 259 (scFv, V domains shown, scFv) VH: QVQLVQSGAEVKKPGSSVKVSCKASGYTFTSSEINWVRQAPGQGLEWMGGIHPMFGTTNYAQKFQGRVTITADESTSTAYMELSSLRSEDTAVYYCARARLMVYAPSDYWGQGTLVTVSS VL: not shown	10 to 30	10 to 30
Polypeptide No. 238 (scFv, V domains shown, scFv) VH: QVQLVQSGAEVKKPGASVKVSCKASGYTFTIYYMHWVRQAPGQGLEWMGIINPSGGSTVYAQTFQGRVTMTRDTSTSTVYMELSSLRSEDTAVYYCARGIGSKGAFDIWGQGTMVTVSS VL: not shown	> 30	> 30
Polypeptide No. 291 (scFv, V domains shown, scFv) VH: QVQLVQSGAEVKKPGASVKVSCKASGYTFTSYYMHWVRQAPGQGLEWMGIINPSGGSTVYAQTFQGRVTMTRDTSTSTVYMELSSLRSEDTAVYYCARGIGSKGAFDIWGQGTMVTVSS VL: not shown	> 30	> 30
Polypeptide No. 243 (scFv, V domains shown, scFv) VH: QVQLVQSGAEVKKPGSSVKVSCKASGGTFSSHAFNWVRQAPGQGLEWMGGISPMFGTPNYAQKFQGRVTITADESTSTAYMELSSLRSEDTAVYYCARAPDYGDDWYFDLWGRGTLVTVSS VL: EIVMTQSPATLSVSPGERATLSCRASQTLTGGLLAWYQQKPGQAPRLLIYDTSSRAAGIPARFSGSGSGTEFTLTISSLQSEDFAVYYCHHYGSSPYTFGQGTKVEIKR	2 to 10	2 to 10
Polypeptide No. 235 (scFv, V domains shown, scFv) VH: QVQLVQSGAEVKKPGASVKVSCKASGYTFTGYYMHWVRQAPGQGLEWMGIINPSGGSTSYAQKFQGRVTMTRDTSTSTVYMELSSLRSEDTAVYYCARDPGRLGELDYWGQGTLVTVSS VL: EIVMTQSPATLSVSPGERATLSCRASQSVSSNLAWYQQKPGQAPRLLIYGASTRATGIPARFSGSGSGTEFTLTISSLQSEDFAVYYCQQYGSSPLTFGGGTKVEIKR	> 30	> 30
Polypeptide No. 240 (scFv, V domains shown, scFv) VH: QVQLVQSGAEVKKPGASVKVSCKASGYTFTSYYMHWVRQAPGQGLEWMGIINPSSGSTTYALKFQGRVTMTRDTSTSTVYMELSSLRSEDTAVYYCARGLGKSAIDYWGQGTLVTVSS VL: not shown	> 30	> 30

From patent US20240101668A1 (WUGEN, published 2024)
